# What was measured:
# LRP6 E3E4 (Homo sapiens) = LRP6 E3E4 (Homo sapiens) (UniProt O75581); details: cited from earlier work
# LRP6 E1E2 (Homo sapiens) = LRP6 E1E2 (Homo sapiens) (UniProt O75581); details: cited from earlier work
# [1] = molecular target: LRP6 first propeller domain (Homo sapiens) (UniProt O75581); details: cited from earlier work
# [2] = molecular target: LRP6 second propeller domain (Homo sapiens) (UniProt O75581); details: cited from earlier work
# human LRP6 = human LRP6 (human, UniProt O75581 20-1613); assay: cell-based or functional assay
# [3] = molecular target: T1, human LRP6 protein fragment comprising propeller domains E1 and E2 (LRP6E1E2) (human, UniProt O75581 20-630); assay: cell-based or functional assay
# T1 sequence (looked up): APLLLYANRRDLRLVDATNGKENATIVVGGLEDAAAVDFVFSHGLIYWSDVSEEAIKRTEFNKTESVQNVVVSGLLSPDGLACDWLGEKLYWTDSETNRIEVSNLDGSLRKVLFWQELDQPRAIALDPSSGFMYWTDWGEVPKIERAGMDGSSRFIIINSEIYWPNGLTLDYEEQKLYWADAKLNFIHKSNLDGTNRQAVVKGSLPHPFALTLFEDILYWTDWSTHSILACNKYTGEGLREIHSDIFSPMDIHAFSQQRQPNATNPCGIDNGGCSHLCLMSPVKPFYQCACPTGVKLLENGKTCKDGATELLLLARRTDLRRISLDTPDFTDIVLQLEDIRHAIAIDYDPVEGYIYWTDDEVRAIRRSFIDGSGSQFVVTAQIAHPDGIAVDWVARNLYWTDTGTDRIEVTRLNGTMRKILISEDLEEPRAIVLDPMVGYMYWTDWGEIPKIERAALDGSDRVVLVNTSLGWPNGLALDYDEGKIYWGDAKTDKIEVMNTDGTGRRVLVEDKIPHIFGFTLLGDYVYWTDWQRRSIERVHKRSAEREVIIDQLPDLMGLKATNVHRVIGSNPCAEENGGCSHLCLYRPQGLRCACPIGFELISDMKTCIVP
# Chain of Dkk1 (O94907 32-266): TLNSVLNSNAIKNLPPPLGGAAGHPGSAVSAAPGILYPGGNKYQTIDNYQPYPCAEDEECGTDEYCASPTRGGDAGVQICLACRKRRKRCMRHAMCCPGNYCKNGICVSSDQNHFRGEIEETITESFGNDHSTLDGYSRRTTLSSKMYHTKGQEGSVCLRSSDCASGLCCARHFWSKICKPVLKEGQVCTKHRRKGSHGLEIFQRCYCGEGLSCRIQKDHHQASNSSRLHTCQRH
# Chain of Sclerostin (Q9BQB4 24-213): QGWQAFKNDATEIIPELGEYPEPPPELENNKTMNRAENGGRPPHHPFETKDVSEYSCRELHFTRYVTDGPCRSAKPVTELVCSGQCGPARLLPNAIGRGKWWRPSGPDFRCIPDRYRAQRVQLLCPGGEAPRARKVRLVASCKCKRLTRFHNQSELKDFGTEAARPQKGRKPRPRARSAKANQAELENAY
# Chain of LRP6 E3E4 (Homo sapiens) (O75581 631-1246): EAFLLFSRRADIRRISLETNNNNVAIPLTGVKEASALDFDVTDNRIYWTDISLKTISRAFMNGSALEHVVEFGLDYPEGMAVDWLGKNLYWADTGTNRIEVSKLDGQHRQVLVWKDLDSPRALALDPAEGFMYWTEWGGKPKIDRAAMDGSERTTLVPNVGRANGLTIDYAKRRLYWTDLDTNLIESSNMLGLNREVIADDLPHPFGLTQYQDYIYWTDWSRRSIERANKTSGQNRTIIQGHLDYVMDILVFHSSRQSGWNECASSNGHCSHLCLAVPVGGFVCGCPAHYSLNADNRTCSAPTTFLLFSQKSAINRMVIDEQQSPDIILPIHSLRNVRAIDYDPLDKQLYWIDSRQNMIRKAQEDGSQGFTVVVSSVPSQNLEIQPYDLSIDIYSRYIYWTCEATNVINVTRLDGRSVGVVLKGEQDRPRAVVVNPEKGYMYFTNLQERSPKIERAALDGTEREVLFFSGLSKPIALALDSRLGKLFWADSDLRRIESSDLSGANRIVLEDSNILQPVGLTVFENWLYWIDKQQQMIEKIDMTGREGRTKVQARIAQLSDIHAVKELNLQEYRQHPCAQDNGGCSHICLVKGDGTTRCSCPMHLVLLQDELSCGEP
molecule,measurement,setting,value
Dkk1 (from UniProt O94907),Kd,LRP6 E3E4 (Homo sapiens),60 nM
same,Kd,LRP6 E1E2 (Homo sapiens),60 nM
Sclerostin (from UniProt Q9BQB4),Kd,[1],60 nM
same,Kd,[2],1300 nM
"wildtype full-length murine Sclerostin (natural protein, UniProt Q99P68 24-211, looked up, 125I-iodinated (Chloramine T) where used as radioligand; biotinylated (EZ-Link Sulfo-NHS-LC-Biotin, molar ratio 1:1.5) in the pull-down) QGWQAFRNDATEVIPGLGEYPEPPPENNQTMNRAENGGRPPHHPYDAKDVSEYSCRELHYTRFLTDGPCRSAKPVTELVCSGQCGPARLLPNAIGRVKWWRPNGPDFRCIPDRYRAQRVQLLCPGGAAPRSRKVRLVASCKCKRLTRFHNQSELKDFGPETARPQKGRKPRPGARGAKANQAELENAY","IC50 of inhibition of Wnt1-driven SuperTOPFlash luciferase reporter, HEK-293TSA M50 cells transfected with mWnt1",human LRP6,10 nM
"Sclerostin Alaloop (natural protein, murine, UniProt Q99P68 24-211, looked up, 125I-iodinated (Chloramine T) where used as radioligand) QGWQAFRNDATEVIPGLGEYPEPPPENNQTMNRAENGGRPPHHPYDAKDVSEYSCRELHYTRFLTDGPCRSAKPVTELVCSGQCGPARLSPGASGARSGSAPAGPDFRCIPDRYRAQRVQLLCPGGAAPRSRKVRLVASCKCKRLTRFHNQSELKDFGPETARPQKGRKPRPGARGAKANQAELENAY","IC50 of inhibition of Wnt1-driven SuperTOPFlash luciferase reporter, HEK-293TSA M50 cells transfected with mWnt1",human LRP6,831 nM
same,"IC50 of inhibition of Wnt3a-driven SuperTOPFlash luciferase reporter, HEK-293TSA M50 cells with 1.5 nM mWnt3a",human LRP6,1110 nM
"Sclerostin I94A (natural protein, murine, UniProt Q99P68 24-211, looked up) QGWQAFRNDATEVIPGLGEYPEPPPENNQTMNRAENGGRPPHHPYDAKDVSEYSCRELHYTRFLTDGPCRSAKPVTELVCSGQCGPARLLPNAAGRVKWWRPNGPDFRCIPDRYRAQRVQLLCPGGAAPRSRKVRLVASCKCKRLTRFHNQSELKDFGPETARPQKGRKPRPGARGAKANQAELENAY","IC50 of inhibition of Wnt1-driven SuperTOPFlash luciferase reporter, HEK-293TSA M50 cells transfected with mWnt1",human LRP6,26.9 nM
"Sclerostin N92A (natural protein, murine, UniProt Q99P68 24-211, looked up) QGWQAFRNDATEVIPGLGEYPEPPPENNQTMNRAENGGRPPHHPYDAKDVSEYSCRELHYTRFLTDGPCRSAKPVTELVCSGQCGPARLLPAAIGRVKWWRPNGPDFRCIPDRYRAQRVQLLCPGGAAPRSRKVRLVASCKCKRLTRFHNQSELKDFGPETARPQKGRKPRPGARGAKANQAELENAY","IC50 of inhibition of Wnt1-driven SuperTOPFlash luciferase reporter, HEK-293TSA M50 cells transfected with mWnt1",human LRP6,196 nM
"Sclerostin ΔLoop (natural protein, murine, UniProt Q99P68 24-211, looked up, 125I-iodinated (Chloramine T) where used as radioligand; biotinylated (EZ-Link Sulfo-NHS-LC-Biotin, molar ratio 1:1.5) in the pull-down) QGWQAFRNDATEVIPGLGEYPEPPPENNQTMNRAENGGRPPHHPYDAKDVSEYSCRELHYTRFLTDGPCRSAKPVTELVCSGQCGPARLGSGPDFRCIPDRYRAQRVQLLCPGGAAPRSRKVRLVASCKCKRLTRFHNQSELKDFGPETARPQKGRKPRPGARGAKANQAELENAY","IC50 of inhibition of Wnt1-driven SuperTOPFlash luciferase reporter, HEK-293TSA M50 cells transfected with mWnt1",human LRP6,806 nM
same,"IC50 of inhibition of Wnt3a-driven SuperTOPFlash luciferase reporter, HEK-293TSA M50 cells with 1.5 nM mWnt3a",human LRP6,655 nM
"Sclerostin C84AC142R (natural protein, murine, UniProt Q99P68 24-211, looked up, biotinylated (EZ-Link Sulfo-NHS-LC-Biotin, molar ratio 1:1.5) in the pull-down) QGWQAFRNDATEVIPGLGEYPEPPPENNQTMNRAENGGRPPHHPYDAKDVSEYSCRELHYTRFLTDGPCRSAKPVTELVCSGQAGPARLLPNAIGRVKWWRPNGPDFRCIPDRYRAQRVQLLCPGGAAPRSRKVRLVASCKRKRLTRFHNQSELKDFGPETARPQKGRKPRPGARGAKANQAELENAY",fold decrease against wildtype of the efficiency to inhibit Wnt1-driven SuperTOPFlash luciferase reporter (supernatants of HEK Freestyle cells expressing the variant),[3],10 fold

# Source: PMC3843708, “Mutational Analysis of Sclerostin Shows Importance of the Flexible Loop and the Cystine-Knot for Wnt-Signaling Inhibition” (PLoS ONE, 2013)
